Laboratory results published in patent publication US20150376296A1 (Memorial Sloan Kettering, published 2015).

Target: human prostate-specific membrane antigen (PSMA) (human, UniProt Q04609 1-750)
Assay: cell-based or functional assay

human prostate-specific membrane antigen (PSMA), sequence (Q04609 whole entry): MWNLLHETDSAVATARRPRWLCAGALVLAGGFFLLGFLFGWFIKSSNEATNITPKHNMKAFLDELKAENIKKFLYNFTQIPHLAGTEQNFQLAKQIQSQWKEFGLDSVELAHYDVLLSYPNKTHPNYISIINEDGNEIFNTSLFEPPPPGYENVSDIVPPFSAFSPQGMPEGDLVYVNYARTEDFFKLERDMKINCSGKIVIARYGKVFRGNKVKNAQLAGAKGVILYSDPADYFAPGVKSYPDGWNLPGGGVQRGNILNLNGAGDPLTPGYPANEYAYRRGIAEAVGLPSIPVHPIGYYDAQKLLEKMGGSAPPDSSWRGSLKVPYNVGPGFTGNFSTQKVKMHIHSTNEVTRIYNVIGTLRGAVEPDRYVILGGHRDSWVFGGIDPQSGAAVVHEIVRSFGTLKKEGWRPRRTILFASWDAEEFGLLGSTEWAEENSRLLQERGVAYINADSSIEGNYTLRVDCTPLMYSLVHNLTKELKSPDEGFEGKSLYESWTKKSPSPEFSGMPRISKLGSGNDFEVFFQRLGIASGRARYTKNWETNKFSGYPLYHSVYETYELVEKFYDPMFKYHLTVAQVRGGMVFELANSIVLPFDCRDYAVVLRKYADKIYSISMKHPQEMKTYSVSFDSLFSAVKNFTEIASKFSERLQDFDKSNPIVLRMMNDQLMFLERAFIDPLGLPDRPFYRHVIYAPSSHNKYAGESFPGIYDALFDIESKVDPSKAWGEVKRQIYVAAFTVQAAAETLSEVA

| cytokine levels of 19-28z/iCAR T cells on CD19+PSMA+ off-target versus CD19+ target AAPCs, inhibition | Binder |
| --- | --- |
| 30% | BTLA iCAR-P (PSMA-specific inhibitory chimeric antigen receptor with BTLA intracellular domain) (receptor) EVQLQQSGPELVKPGTSVRISCKTSGYTFTEYTIHWVKQSHGKSLEWIGNINPNNGGTTYNQKFEDKATLTVDKSSSTAYMELRSLTSEDSAVYYCAAGWNFDYWGQGTTVTVSSGGGGSGGGGSGGGGSDIVMTQSHKFMSTSVGDRVSIICKASQDVGTAVDWYQQKPGQSPKLLIYWASTRHTGVPDRFTGSGSGTDFTLTITNVQSEDLADYFCQQYNSYPLTFGAGTMLDLKRAAADVKSASERPSKDEMASRPWLLYSLLPLGGLPLLITTCFCLFCCLRRHQGKQNELSDTAGREINLVDAHLKSEQTEASTRQNSQVLLSETGIYDNDPDLCFRMQEGSEVYSNPCLEENKPGIVYASLNHSVIGPNSRLARNVKEAPTEYASICVRS |
| 30% | 2B4 iCAR-P (PSMA-specific inhibitory chimeric antigen receptor with 2B4 intracellular domain) (receptor) EVQLQQSGPELVKPGTSVRISCKTSGYTFTEYTIHWVKQSHGKSLEWIGNINPNNGGTTYNQKFEDKATLTVDKSSSTAYMELRSLTSEDSAVYYCAAGWNFDYWGQGTTVTVSSGGGGSGGGGSGGGGSDIVMTQSHKFMSTSVGDRVSIICKASQDVGTAVDWYQQKPGQSPKLLIYWASTRHTGVPDRFTGSGSGTDFTLTITNVQSEDLADYFCQQYNSYPLTFGAGTMLDLKRAAAQDCQNAHQEFRFWPFLVIIVILSALFLGTLACFCVWRRKRKEKQSETSPKEFLTIYEDVKDLKTRRNHEQEQTFPGGGSTIYSMIQSQSSAPTSQEPAYTLYSLIQPSRKSGSRKRNHSPSFNSTIYEVIGKSQPKAQNPARLSRKELENFDVYS |
| 30% | LAG-3 iCAR-P (PSMA-specific inhibitory chimeric antigen receptor with LAG-3 intracellular domain) (receptor) EVQLQQSGPELVKPGTSVRISCKTSGYTFTEYTIHWVKQSHGKSLEWIGNINPNNGGTTYNQKFEDKATLTVDKSSSTAYMELRSLTSEDSAVYYCAAGWNFDYWGQGTTVTVSSGGGGSGGGGSGGGGSDIVMTQSHKFMSTSVGDRVSIICKASQDVGTAVDWYQQKPGQSPKLLIYWASTRHTGVPDRFTGSGSGTDFTLTITNVQSEDLADYFCQQYNSYPLTFGAGTMLDLKRAAALGAAVYFTELSSPGAQRSGRAPGALPAGHLLLFLILGVLSLLLLVTGAFGFHLWRRQWRPRRFSALEQGIHPPQAQSKIEELEQEPEPEPEPEPEPEPEPEPEQL |
